In article PMC10313165:

Legend:
[1] = biological target: rat CaMKIIα holoenzyme with pT286 (rat (Rattus norvegicus)) (UniProt P11275); test: high-speed atomic force microscopy; 50 nM CaMKII and 800 nM CaM premixed in buffer B with 1 mM CaCl2 and 1 mM ATP, 30 °C, 5 min; imaged in buffer A with 1 mM CaCl2 and 1 mM ATP on pillar[5]arene-modified mica, 24-26 °C
[2] = biological target: rat CaMKIIα holoenzyme (wild type, not phosphorylated) (rat (Rattus norvegicus)) (UniProt P11275); test: high-speed atomic force microscopy; 50 nM CaMKII and 800 nM CaM premixed in buffer B (50 mM tris-HCl pH 7.4, 150 mM KCl, 10 mM MgCl2) with 1 mM CaCl2, 30 °C, 5 min, no ATP; imaged in buffer A with 1 mM CaCl2 on pillar[5]arene-modified mica, 24-26 °C

rat calmodulin, 6xHis-tagged (Ca^2+-bound in the assays) (from UniProt P0DP29 1-149) (natural protein; other documents disagree on this pair)
fraction of Ca^2+/CaM bound longer than 60 s [1]: 77.3% | fraction of Ca^2+/CaM bound longer than 60 s [2]: 41.1%
